The target in this assay is extracellular domain (ECD) of the IL-5 receptor α chain (IL-5R α) (human) (UniProt Q01344). The assay is described as follows: grade under 'Affinity'; IC50 values of 500 nm or less; competition with [125I] IL-5 for IL-5Rα ECD (Example 3), assay not given.

Some results are limits rather than exact numbers.

B1: D G Y V C V E W A R C P M C T (SEQ ID NO:8) (peptide)
peptide: DGYVCVEWARCPMCT
B1 yielded an IC50 of under 500 nM.

B2: D G Y V C V E W A R C P T C K (SEQ ID NO:7) (peptide)
peptide: DGYVCVEWARCPTCK
B2 displayed an IC50 of under 500 nM.

B3: D G F V C V E W A R C P N C R (SEQ ID NO:9) (peptide)
peptide: DGFVCVEWARCPNCR
B3: the IC50 was under 500 nM.

The term IC50 denotes the concentration that inhibits the measured activity by half. Read a low IC50 as inhibition by little substance.

The values above are taken from patent US5683983.
